Data reported in patent US20220332804A1 (CSL INNOVATION, published 2022).
Residue numbers refer to the chain shown, from its start.

What was measured:
Test in all cases: SPR, antibody captured, C2 as analyte;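 further: biacore SPR at 37 °C, anti-C2 mAbs captured via goat anti-human IgG on CM5 chips, double-referenced sensorgrams fit to a 1:1 kinetic or steady-state model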
[1] = target: T1, human C2 W420A (human, UniProt P06681 21-752)
T1 sequence: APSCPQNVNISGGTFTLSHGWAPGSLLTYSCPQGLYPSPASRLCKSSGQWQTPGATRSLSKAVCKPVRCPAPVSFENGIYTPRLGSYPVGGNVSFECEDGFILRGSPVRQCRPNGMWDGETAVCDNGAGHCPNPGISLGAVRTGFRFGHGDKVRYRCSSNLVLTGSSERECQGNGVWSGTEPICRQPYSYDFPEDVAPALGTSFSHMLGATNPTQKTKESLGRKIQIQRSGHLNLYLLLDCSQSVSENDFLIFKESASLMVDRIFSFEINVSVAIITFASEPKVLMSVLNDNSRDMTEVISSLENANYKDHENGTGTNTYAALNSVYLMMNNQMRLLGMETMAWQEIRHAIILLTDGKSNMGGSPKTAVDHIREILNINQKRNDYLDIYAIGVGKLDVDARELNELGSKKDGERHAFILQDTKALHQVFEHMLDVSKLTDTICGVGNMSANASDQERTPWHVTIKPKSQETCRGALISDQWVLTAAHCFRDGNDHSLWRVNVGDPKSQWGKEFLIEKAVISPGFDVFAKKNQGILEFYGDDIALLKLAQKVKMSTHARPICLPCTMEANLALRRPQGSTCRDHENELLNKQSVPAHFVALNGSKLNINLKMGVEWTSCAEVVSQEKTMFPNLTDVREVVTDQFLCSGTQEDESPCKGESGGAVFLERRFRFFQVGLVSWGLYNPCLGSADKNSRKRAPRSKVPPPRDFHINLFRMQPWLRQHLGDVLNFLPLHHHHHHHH

[2] = target: T2, human C2 S469A (human, UniProt P06681 21-752)
T2 sequence: T1 sequence with A400W, S449A

[3] = target: T3, human C2 N471A (human, UniProt P06681 21-752)
T3 sequence: T1 sequence with A400W, N451A

[4] = target: T4, human C2 T483A (human, UniProt P06681 21-752)
T4 sequence: T1 sequence with A400W, T463A

B1: RF16-226 (antibody, human IgG4 S228P, lambda)
heavy: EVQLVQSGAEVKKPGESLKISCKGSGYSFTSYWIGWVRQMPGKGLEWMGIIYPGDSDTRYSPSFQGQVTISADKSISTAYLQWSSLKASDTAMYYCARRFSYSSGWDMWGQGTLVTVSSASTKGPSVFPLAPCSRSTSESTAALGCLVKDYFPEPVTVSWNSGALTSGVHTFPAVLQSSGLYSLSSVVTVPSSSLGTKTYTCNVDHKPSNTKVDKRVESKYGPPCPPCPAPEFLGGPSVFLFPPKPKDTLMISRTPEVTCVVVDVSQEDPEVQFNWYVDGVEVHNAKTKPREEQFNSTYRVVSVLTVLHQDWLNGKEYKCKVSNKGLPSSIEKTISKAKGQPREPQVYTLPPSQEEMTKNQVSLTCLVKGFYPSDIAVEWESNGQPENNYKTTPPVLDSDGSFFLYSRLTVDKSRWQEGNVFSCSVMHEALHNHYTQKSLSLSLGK
light: SYELTQPPSVSVSPGQTARITCSGDALTSKYVAWYQQKSGLAPLLVIYEDTRRPSGIPAKFSGSSSGSVATLTISGAHGDDEADYYCYSTDASGHQRVFGGGTKLTVLSQPKAAPSVTLFPPSSEELQANKATLVCLISDFYPGAVTVAWKADGSPVKAGVETTKPSKQSNNKYAASSYLSLTPEQWKSHRSYSCQVTHEGSTVEKTVAPTECS
notes: pH-dependent anti-C2 antibody from a phage display library; also called WT
Kd [1]: 0.0156 µM | Kd [2]: 0.0282 µM | Kd [3]: 0.0097 µM | Kd [4]: 0.0055 µM
